Test results reported in the DeepSol protein solubility set.

Assay: soluble on expression in E. coli; label from the status in PepcDB or PDB records
In the case of “SSPATVTEPLKAEPAEAPVPLLRVSPSSLQCEPGYLLPNSPVLGTGGVTGYEYLTNILSSKVYDVAYETPLQKAPKLSERLGVNVLKREDLQPVFSFKIRGAYNMMAKLPKEQLEKGVICSSAGNHAQGVALSAQRLGCDAVIVMPVTTPDIKKSVKRLGATVVLVGDSYDEAQAYAKKRAESEGRTFIPPFDHPDVIVGQGTVGMEINRQLKDNIHAIFVPVGGGGLIAGIAAYLKRVAPDIKIIGVEPLDANALALSLHHGQRVMLDQVGGFADGVAVKVVGEETYRLCEELIDGVVLVGRDAICASIKDMFEEKRSILEPAGALALAGAEAYCKYYGLKGENVVAITSGANMNFDRLRLVTELADVGRQREAVLATFMPEDPGSFKKFAEMVGPMNITEFKYRYNSDKERALVLYSVGLHTILELEGMVERMESADLQTINLTDNDLVKDHLRHLMGGRTNVHNELLCRFTFPEKPGALMKFLDAFSPRNISLFHYRAQGDTGANVLVGIQVPPDEVVEFEGRADSLGYEYAMESLNEAYQLIMH”, the “soluble on expression in E. coli” value is reported as “soluble”.
In the case of “MIPADGWRHVGDQWLVSTDGAKIHASELADHLLADFGYAIVYDEMAEPVDLYRTQRFANDKQRLILTADQLLCADPQCTRAAYRGQAHHIEAWKNGGDTNLKNLCLTCGPHNALNDDDHAKGKHKNGHYVRDKYNGRIGWQPPDPTKSIRFNNHVLAQKSGRSWAIRHFGL”, the “soluble on expression in E. coli” value is reported as “not soluble”.
For “NDPEWFAIVKWTLFAMLNAEEAKITSKNVEAEAKATKNPDVARMLGADGTYGKDLNLPKDWVVQIVKQVGNYGEVFERNLGEGTPLKIKRGQNALWNAGGIQYAPPIR”, the “soluble on expression in E. coli” value was “not soluble”.
For “MWLGYMNKSIPTTRKTRTFKAMSIEFSAPAKMKIEVWSDIMCPFCYIGKKRLDDALSTFDQAGRIEVEYKSFELMPGLETHPLRSDVEYLADAKGMSLEQARQMNGQVQAMAQATGLEMNPDETIAANTINAHRLTHFAKAHGKQQEVAQELFKAHFVDGKNVDDLDVLVSIAAEVGLDASAAREALESDVYTNEVQQDVHEARQLGVQGVPFFVFDRKYAINGAQQEEVFTGTVEKAFEEWAAENPVSPFEVIDGQSCSVDGTCN”, the “soluble on expression in E. coli” value was “not soluble”.
For “MSLKSSFYYHRTMLGDKDKYADLKQRITALYHKHKGRYGYRRMTVALKHLGVHHNHKLIAKLMKQLTLSAKIRRQKYRSYKGQQGKIAKNYLKRRFKASKPHKRWLTDITEFKVGDHKLYLSPILDCYNNEIVSYTLSRRPTYDLVSQMLDKALDKTGKHRHKTLMLHSDQGWHYQMKPFREMLKKHQIKQSMSRKGNCLDNALMEGFFGTLKCETIYIEKPKTIEALERQIHEYIHYYNHERIQLKLKGLSPVQYRTQSLKEGHHHHHH”, the “soluble on expression in E. coli” value was “not soluble”.
With “MSLGDQYTYYMNEKEFSDFKEKSQGNYMGIGIQVAVKDGKIVVISPIQGGPAEKAGIKTGDIILKVNGEPVSGNELDKAVSMMKGTTKENIKLTLYREGHHHHPPLIRIRAPSTSLRPHSSTTTTTTEIRLLTKPERKLSWLLPPLSNN” the “soluble on expression in E. coli” value was “soluble”.
In the case of “MGSDKIHHHHHHCRDELSTAGGKWVESSLRTIQTDTCTVRLSTILSDSLATSGDTVCQIGTIDDPVWGKIKAAFYAEYDVPTVSFSENADYRFDSITIRFYSSGNYLGDTLSPQRISLHSLSENLSLDEGYLYTTSKVSYHSTPLASFTFTPTPGETIREHEIRLPDEWGVEWFEHFQAGSREMESQEYFRDYFKGIAFIPEEGGNCVNGFMVNDSSLCITLYYHQTETDATELSADFLPNSDLRFNQVSCDRSRTALSSLQSGLNNGLPSEKSEHQSYLQGLTGMYINIDFPFLNDLRAEGRLVTIESALLRLYPVKGTYGKQYPLPESLTLYTADENNVTEDVVTDISGSSVQTGSLVTDEMMGEDTYYSFDITSFLQSNLGTVGYNRKILQLMLPDNLFFTTLNGVVFGDARHPDSNPVKLTLLYKTYNP”, the “soluble on expression in E. coli” value is reported as “not soluble”.
With “MKPMSDYDIPTTENLYFQGAMVTTPGKPNDPDNPNNNYIKPTKVNKNKEGLNIDGKEVLAGSTNYYELTWDLDQYKGDKSSKEAIQNGFYYVDDYPEEALDVRPDLVKVADEKGNQVSGVSVQQYDSLEAAPKKVQDLLKKANITVKGAFQLFSADNPEEFYKQYVATGTSLVITDPMTVKSEFGKTGGKYENKAYQIDFGNGYATEVVVNNVPKITPKKDVTVSLDPTSENLDGQTVQLYQTFNYRLIGGLIPQNHSEELEDYSFVDDYDQAGDQYTGNYKTFSSLNLTMKDGSVIKAGTDLTSQTTAETDATNGIVTVRFKEDFLQKISLDSPFQAETYLQMRRIAIGTFENTYVNTVNKVAYASNTVRTTT” the “soluble on expression in E. coli” value was “soluble”.
With “MTYETISVRMNRSDRNIRWGFSVRQQADGLIIDRVEAESLSDKAGVKHNDKVDQINGRSTRGLDAASANRLIDDSFNEVRLSLQRFVTSHTTLPWTLNEKDNKMVVEEMKPGFGTGFGSGFGSSNFVNSSFNQNQNNFGSHFGTGSGVNQRNITNTNTSSSNHQSSTFHSSSHQSSGNYGSGGFSPSSHHNIPIRHSPAPPFTTSNSSYNNIKKSTDNTILPGSANYNPNNSSNYNSVPTGFGASSGGYGGSGGFKGHSNGSAIPAQAPPTSYSYNNGATSQPYGAGSGGTPLNQMTFINTSPAPGANGAYGAQCGLSPSKVFYHSPSGRSRNELSPGAAVHHLQYNSPMNLYSSEATAEQLYQQTGAVPEGPVPHDKSPAYLTSETRKLIEEEARGRFQRGKSPSSQSSCFKRISHAVGADH” the “soluble on expression in E. coli” value was “not soluble”.
For “MRMRLMLLGGGNALGQALIRLGAEEDIGFLAPRPPEQGWDAASLTTLLDETRPDAVINLAFYHDWFQAEQVEAERLGAQERAVERLAELCQHYEILLVQPSSYRVFDGARATAYSEKDETLPLGLRGQALWRMEQSVRAACPRHVLIRFGWLLDESPNGLLGRFLSRAEQPQPLFLADDRRGNPTPVDDAARVVLSVLKQLDCQAPLWGTYHYGGLEATTTLALGQVILNEARTYRSNLIQEPSAEAHAARPDALDEPQHAVMVCKKILHTFGIKPRAWRAGLPALLDRYYRHV”, the “soluble on expression in E. coli” value was “not soluble”.
With “MELLFLGTGAGIPAKARNVTSVALKLLEERRSVWLFDCGEATQHQMLHTTIKPRKIEKIFITHMAGDHVYGLPGLLGSRSFQGGEDELTVYGPKGIKAFIETSLAVTKTHLTYPLAIQEIEEGIVFEDDQFIVTAVSVIHGVEAFGYRVQEKDVPGSLKADVLKEMNIPPGPVYQKIKKGETVTLEDGRIINGNDFLEPPKKGRSVVFSGDTRVSDKLKELARDCDVMVHEATFAKEDRKLAYDYYHSTTEQAAVTAKEARAKQLILTHISARYQGDASLELQKEAVDVFPNSVAAYDFLEVNVPRGKLAAALEHHHHHH” the “soluble on expression in E. coli” value was “soluble”.
In the case of “RTLELAFSSEAAEVQTRSGVEILGHRINEVRMHRLDNGAALLLDHNPREHIGVVESASIDSDHRGRAIVRFGRSPRAEEILRDVLDGIRKHVSVGYLVHQVEVIGQRDAGPLYRATDWEPIEISIVSIPADPSVGIGRALENLPQD”, the “soluble on expression in E. coli” value is reported as “not soluble”.
With “MGSDKIHHHHHHIEGPGTTENLKEFVTVDGKKDTQSGAFYLTTVGIRSATIFSAIKANFSDFQEVMSKKELMGDSSNSEYNRIQQYYMDSSKNAAIEQALKLAKVPYEMKFKGVYVLAMEDNSSFKGKIEVGDTVTGVDGKSFKSSEELMNYIKAQKVNQKVTVQFIQDGKAKEATGKLIELPTDKKAGIGIGLTDHTEIDSSIPVSIEAGDIGGPSAGLMFTLQTYEQLSHKDLRKGHEIAGTGTMNSQGIVGRIGGIDKKVVTASENGAEIFFAPDDEITSEMKKVEPKIKSNYQEAQEAAKKIGTKMKIVPVKTVQDALNYLEKLK” the “soluble on expression in E. coli” value was “not soluble”.
For “MSLFTGENWDPYEWAKVFKKSGAKFVVLVAEHHDGFALWESNYTRWCATKIGPKRDIVRELKEAVEGQGLIFGISYHRAEHWWFFDQGMKIESDVKDPRYLDLYGPAQSASLNPRDPPSLDNVQPNDEFLMDWLLRIVEAVEKYRPWLVYFDWWIANPSFQPYLKAFASYYYNRSYKWGIEPVIIYKQGAFGEGTAIPDLAERGTIKNVYPSTWLADTSIDYKSWGYIKDAEYKLPSVILSHLGDVVSKNGVFLLNIGPKADGTIPEEAKRILLDVGDWLNVNGEAIFGSKPWRVYGEGPSGINEGGFFTERKITLGYQDVRYTVKDYYPRQRHIYAILFGKPKEITLRSFMKNLKLIEEAVIVDVSRLDGKGKLEWSLSDEGLKIKIEEVIRAPLVIRVILDYREGHHHHHH”, the “soluble on expression in E. coli” value was “not soluble”.
With “SSSTLGKLSNQVEETLPLLKKVPANYFHICSAILMGFSLSKSATQVSAIHMDSKVDDHLIRGTEKSRLEPATQLFQNTKKIRLEDTNQENFTRIEGTGTGSLSGKALGSVVYVKESDGLEMTDVE” the “soluble on expression in E. coli” value was “soluble”.
In the case of “ASMTGGQQMGRGSDSKPPYSYAQLIVQAITMAPDKQLTLNGIYTHITKNYPYYRTADKGWQNSIRHNLSLNRYFIKVPRSQEEPGKGSFWRIDPASESKLIEQAFRKRRPR”, the “soluble on expression in E. coli” value is reported as “soluble”.
For “MALHLHRAERTDLLADGLGALLADPQPDPFAQELVLVAARGVERWLSQRLSLVLGCGPGRADGVCAGIAFRNPQSLIAEITGTLDDDPWSPEALAWPLLAVIDASLDEPWCRTLASHLGHFATTDAEAELRRGRRYSVARRLAGLFASYARQRPGLLAAWLDGDLGELPGDLAWQPPLWRALVTTVGADPPHVRHDKTIARLRDGPADLPARLSLFGHTRLACTDVQLLDALAVHHDLHLWLPHPSDELWRALAGFQGADGLLPRRQDTSRRAAQHPLLETLGRDVRELQRALPAARATDEFLGATTKPDTLLGWLQADIAGNAPRPAGRSLSDADRSVQVHACHGPARQIDVLREVLLGLLEDDPTLQPRDIVVMCPDIDTYAPLIVAGFGLGEVAGDCHPAHRLRVRLADRALTQTNPLLSVAAELLTIAETRATASQLLNLAQAAPVRAKFGFADDDLDTITTWVRESNIRWGFDPTHRRRYGLDTVVHNTWRFGLDRILTGVAMSEDSQAWLDTALPLDDVGSNRVELAGRLAEFVERLHHVVGGLSGARPLVAWLDALATGIDLLTACNDGWQRAQVQREFADVLARAGSRAAPLLRLPDVRALLDAQLAGRPTRANFRTGTLTVCTMVPMRSVPHRVVCLVGLDDGVFPRLSHPDGDDVLAREPMTGERDIRSEDRQLLLDAIGAATQTLVITYTGADERTGQPRPPAVPLAELLDALDQTTSAPVRERILVTHPLQPFDRKNVTPGALLGAKPFTFDPAALAAAQAAAGKRCPPTAFISGRLPAPPAADVTLADLLDFFKDPVKGFFRALDYTLPWDVDTVEDSIPVQVDALAEWTVGERMLRDMLRGLHPDDAAHSEWRRGTLPPGRLGVRRAKEIRNRARDLAAAALAHRDGHGQAHDVDVDLGDGRRLSGTVTPVFGGRTVSVTYSKLAPKHVLPAWIGLVTLAAQEPGREWSALCIGRSKTRNHIARRLFVPPPDPVAVLRELVLLYDAGRREPLPLPLKTSCAWAQARRDGQDPYPPARECWQTNRFRPGDDDAPAHVRAWGPRAPFEVLLGKPRAGEEVAGEETRLGALAARLWLPLLAAEGSV”, the “soluble on expression in E. coli” value was “soluble”.
With “GPGSMNGEFPVLVSHHKLLMLPTVGVARYDSGNAGIIGEQTHNFHVIPEIELIVVRVHGKMTEYQHNHLLLTSVLQLHAKPLHLFLTNASINIQHIFAMTITMLHAIRFCPSGSTGPCCKHRQIRPIEHNEKEHAALTYLKTIVTGWHPQQTINMIMVLFAQPQEIVVPQ” the “soluble on expression in E. coli” value was “not soluble”.
With “MAHHHHHHMQSSISQEKLQLMQKNFNLVDLNKDGKIAAEEFKTLLRLLGQTKTEKEMDEMVDKHFEDAPIGEEQQQDAAEAADKGGANEGTPSTAKQLGGQKNTAKTAPNHDRIKNLIAKLNNSKDEDKKKNSPNGQINRTGDVYAKNELINKKKKHINFETFLRIFLETYEEPLSVDELITSFEFFDKEKSGYLDEEKVRFILKNSEERLADEDMKLFLNSLNLRDKDKIDYVMLAKRLKNVA” the “soluble on expression in E. coli” value was “not soluble”.
